The source of these data is US20170298119A1 (VISTERRA, published 2017).

Positions count from the first letter of the chain named. Like-named read-outs stand apart in the source and are kept apart here.

The target of experiment [1] is T1, wild type ZIKV EDIII displayed on yeast (yeast; Zika virus).
T1 construct: also called WT EDIII
Nature of the experiment: yeast display of wild type ZIKV EDIII, flow cytometry (Alexa-647 MFI) over hybridoma supernatant dilutions; KD from the 50% maximal binding dilution and the Octet-quantified supernatant concentration.

Experiment [2] concerns the target T1, wild type ZIKV EDIII displayed on yeast.
Another experiment concerns the target T2, DENV EDIII protein (dengue virus, UniProt P17763 573-679).
T2 construct: domain: EDIII; also called EDIII-DV1; dengue virus E protein domain III
Nature of the experiment: ELISA of Example 7 on coated DENV EDIII, where p-1318 says 'minimal cross-reactivity with the DENV EDIII protein'. On the technique in general: An ELISA detects its analyte on a solid surface through an enzyme-linked reagent.

A further experiment concerns the target T3, recombinant FcRn protein (Homo sapiens (Human), UniProt P55899 24-297; P61769 21-119).
T3 construct: also called neonatal Fc receptor; copies: 1 + 1
Nature of the experiment: BLI (Octet): antibody on anti-CH1 biosensors, recombinant FcRn at pH 6.0; fold change against wild type Motavizumab. For orientation: BLI is a label-free optical method that tracks binding on a fibre tip over time.

T3 sequence (P55899 24-297 limits assumed, chain 1 of 2): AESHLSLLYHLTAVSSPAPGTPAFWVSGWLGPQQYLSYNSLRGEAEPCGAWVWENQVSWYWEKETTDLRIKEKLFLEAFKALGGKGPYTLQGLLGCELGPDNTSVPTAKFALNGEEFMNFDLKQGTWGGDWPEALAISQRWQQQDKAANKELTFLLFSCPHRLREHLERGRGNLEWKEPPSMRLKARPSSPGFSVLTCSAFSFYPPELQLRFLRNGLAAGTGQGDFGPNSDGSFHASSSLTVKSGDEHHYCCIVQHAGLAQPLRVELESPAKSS
T3 sequence (P61769 21-119 limits assumed, chain 2 of 2): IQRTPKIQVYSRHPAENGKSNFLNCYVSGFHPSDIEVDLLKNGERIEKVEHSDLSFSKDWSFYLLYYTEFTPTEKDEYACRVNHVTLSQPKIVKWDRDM
T1 sequence (P32781 19-87): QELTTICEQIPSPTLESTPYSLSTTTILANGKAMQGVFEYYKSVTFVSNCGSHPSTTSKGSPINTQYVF
T2 sequence (P17763 573-679 limits assumed): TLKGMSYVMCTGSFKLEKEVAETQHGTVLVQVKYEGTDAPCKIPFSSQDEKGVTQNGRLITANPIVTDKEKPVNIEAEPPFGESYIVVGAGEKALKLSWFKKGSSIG

B1: ZV-67 (antibody, V domains shown)
VH: QVQLQQSGTGLARPGASVKLSCKASGYTFTSYGISWVTQRAGQGLEWIGVIYPRSGNTYYNEKFRGKATLTADKSSSSAYMELRGLTAEDSAVYFCARENYGSVYWGQGTTLTVSS
VL: DIVMTQSQKFMSTSVGDRVSITCKASQNVGTAVAWYQQKPGQSPKLLIYSASNRYTGVPDRFTGSGSGTDFTLTISNMQSEDLADYFCQQFSSYPYTFGGGTKLEIK
With B1, the Kd in experiment [1] stood at 0.65 nM.

B2: ZV-54 (antibody, V domains shown)
VH: B1 VH with T9V, A16T, T28S, S31T, A41P, G56N, K63R, M81L
VL: B1 VL with S20T, N28S, Q37H, S76T, N77Y, S93N, Y96F
notes: also called ZWT; Rec54
For B2, in experiment [2], the Kd amounted to 0.74 nM. Besides, the binding result with DENV EDIII protein is given as “no binding”.

B3: FcMut186 (antibody)
chain: ASTKGPSVFPLAPSSKSTSGGTAALGCLVKDYFPEPVTVSWNSGALTSGVHTFPAVLQSSGLYSLSSVVTVPSSSLGTQTYICNVNHKPSNTKVDKKVEPKSCDKTHTCPPCPAPELLGGPSVFLFPPKPKDTLMISRDPEVTCVVVDVSHEDPEVKFNWYVDGVEVHNAKTKPREEQYNSTYRVVSVLRVLHVDWLNGKEYKCKVSNKALPAPIEKTISKAKGQPREPQVYTLPPSRDELTKNQVSLTCLVKGFYPSDIVVEWESNGQPENNYKTTPPVLDSDGSFFLYSKLTVDKSRWQQGNVFSCSVMHEALHNHYTQKSLSLSPGK
For the molecule B3, in the experiment with recombinant FcRn protein, the “Kd (fold increase)” value was 10.3 fold, the “koff (fold decrease)” value worked out at 3.5 fold and the “kon (fold increase)” value turned out to be 2.7 fold.

B4: FcMut229 (antibody)
chain: B3 chain with H168D
Regarding B4, in the experiment with recombinant FcRn protein, the “Kd (fold increase)” value is 5.6 fold, the “koff (fold decrease)” value was 4.3 fold and the “kon (fold increase)” value is 1.1 fold.

B5: FcMut171 (antibody)
chain: B3 chain with N169D, V261A
With B5, in the experiment with recombinant FcRn protein, the “Kd (fold increase)” value was determined as 8.2 fold, the “koff (fold decrease)” value is 3.5 fold and the “kon (fold increase)” value stood at 2 fold.

For orientation: Kd means the concentration at which binding is half-saturated.
